From patent US5686592, “High-affinity oligonucleotide ligands to immunoglobulin E (IgE)” (NeXstar Pharmaceuticals, Inc.)

T1: TAN IgE (chimeric: murine light chains and variable region, human heavy-chain constant region) (Mus musculus/Homo sapiens chimera, UniProt P01854-1 P01854-1:1-428)
T1 chain: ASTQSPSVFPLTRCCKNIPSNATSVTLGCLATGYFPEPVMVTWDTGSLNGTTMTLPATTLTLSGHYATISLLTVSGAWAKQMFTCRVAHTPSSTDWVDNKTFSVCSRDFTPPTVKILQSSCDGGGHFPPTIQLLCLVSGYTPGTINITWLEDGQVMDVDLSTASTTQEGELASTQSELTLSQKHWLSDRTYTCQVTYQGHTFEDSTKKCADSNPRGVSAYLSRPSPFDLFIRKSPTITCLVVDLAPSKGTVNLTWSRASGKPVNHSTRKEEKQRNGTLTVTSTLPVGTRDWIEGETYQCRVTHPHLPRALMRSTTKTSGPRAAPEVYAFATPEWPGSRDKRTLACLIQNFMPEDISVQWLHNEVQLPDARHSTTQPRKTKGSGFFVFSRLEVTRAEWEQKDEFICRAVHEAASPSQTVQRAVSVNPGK

B1: D17.4 (ssDNA)
DNA: GGGGCACGTTTATCCGTCCCTCCTAGTGGCGTGCCCC
B2: D17.1 (ssDNA)
DNA: CACGTTTATCCGTCCCTCCTAGTGGCGTG
B3: D17.0 (ssDNA)
DNA: CTACCTACGATCTGACTAGCCAATGAGTGTACCACGTTTATCCGTCCCTCCTAGTGGCGTGCTTACTCTCATGTAGTTCC
B4: IGEL1.2 (ssRNA)
RNA: GGGAGGACGAUGCGGGUGUGAAUGGUGUUGUGAGG
modifications: 2'-NH2 on all C and U
B5: IGEL1.1 (ssRNA)
RNA: GGGAGGACGAUGCGGGUGUGAAUGGUGUUGUGAGGUUACUGUACUUCGGUGGCUGCAGACGACUCGCCCGA
modifications: 2'-NH2 on all C and U
B6: IGEL3.1 (ssRNA)
RNA: GGGAGGACGAUGCGGUCCAUCGAUUAGGCGGUCGUGCUGGUGUAGUGUGUAGUGGCAGACGACUCGCCCGA
modifications: 2'-NH2 on all C and U
B7: IGEL2.2 (ssRNA)
RNA: GGGAGGACGAUGCGGGUGUGGGGCG
modifications: 2'-NH2 on all C and U
B8: IGEL29.1 (ssRNA)
RNA: GGGAGGACGAUGCGGGUGUCAAUGGUGUUGCGAGGCAAAAAUAACCAGCGCAUAUUCUCGGCCAUGUUGGCGUGCAUACAGACGACUCGCCCGA
modifications: 2'-NH2 on all C and U
B9: IGEL48.1 (ssRNA)
RNA: GGGAGGACGAUGCGGGAGUGGGGCGAUGAGAGAGAUCAGAGAACUAGAAGUGAUACAAAAUCUGAGGUUGUUGCGCAGACGACUCGCCCGA
modifications: 2'-NH2 on all C and U
B10: IGEL8.1 (ssRNA)
RNA: GGGAGGACGAUGCGGACCGCCCGUCGAGGGCUAGGCGUAGAGUCUAACCGGUGCCAGACGACUCGCCCGA
modifications: 2'-NH2 on all C and U
B11: IGEL25.1 (ssRNA)
RNA: GGGAGGACGAUGCGGGUGUGAAUGGUGUCGUGAGGACUUAUCAGGCUCCGUGGUGCAGACGACUCGCCCGA
modifications: 2'-NH2 on all C and U
B12: IGEL2.1 (ssRNA)
RNA: GGGAGGACGAUGCGGGUGUGGGGCGAAUGAGAAACGUUACCAGGAAAUGCGACUGCAGACGACUCGCCCGA
modifications: 2'-NH2 on all C and U
B13: IGEL31.1 (ssRNA)
RNA: GGGAGGACGAUGCGGGUGUGAAUGGUGUUGUGAGGUUCUCGACUGUUUGUGUCUAGCCGUACUUUAGCCUCGGCCAGACGACUCGCCCGA
modifications: 2'-NH2 on all C and U
B14: IGEL4.1 (ssRNA)
RNA: GGGAGGACGAUGCGGACGGUAGUCUGGUAGGCGCUGUGACGGCGAGAAUCCGGACCAGACGACUCGCCCGA
modifications: 2'-NH2 on all C and U
B15: IGEL13.1 (ssRNA)
RNA: GGGAGGACGAUGCGGGACGGGGGCGGAAUCAUGCAUGUGAGCGAACAGAGAGAGAGCCGUGUAUCCAUUCGUGGUCAGACGACUCGCCCGA
modifications: 2'-NH2 on all C and U
B16: IGEL9.1 (ssRNA)
RNA: GGGAGGACGAUGCGGGCGGGGAACAGACGGCUCAGAGCGGCACGAUUGUCAGCCAGCAAUUAUAUCGUGUUGAUGCAGACGACUCGCCCGA
modifications: 2'-NH2 on all C and U
B17: IGEL11.1 (ssRNA)
RNA: GGGAGGACGAUGCGGAACAGCACGAGUGUACCUAAGACAGGCGAUGGCACUCGUGGUCGAAAUCAUAUAGUGAUGCAGACGACUCGCCCGA
modifications: 2'-NH2 on all C and U
B18: IGEL7.1 (ssRNA)
RNA: GGGAGGACGAUGCGGAGACGCGUGAACACUAGUAUCACAGUUAAGGAUGCGCGCAGACGACUCGCCCGA
modifications: 2'-NH2 on all C and U
B19: IGEL49.1 (ssRNA)
RNA: GGGAGGACGAUGCGGGUGUGGGGCGGAUAAUGAGUGAACAGAGUGAAAUUCCAGUGUAGCCAGACUGUGCUGUCGCAGACGACUCGCCCGA
modifications: 2'-NH2 on all C and U
B20: IGEL44.1 (ssRNA)
RNA: GGGAGGACGAUGCGGGUGCGGGGCGAGUAUAUGAAACUUGGCUUGGUAAUGAUCAGAAGUAGUGAGAACUGGGUGCAGACGACUCGCCCGA
modifications: 2'-NH2 on all C and U
B21: IGEL10.1 (ssRNA)
RNA: GGGAGGACGAUGCGGGCCACGCGUGGUUAGGGAUCGCGGACAGCACAAAUCGAAUUUGAUUCGCACCUGGACGGUCAGACGACUCGCCCGA
modifications: 2'-NH2 on all C and U
B22: IGEL5.1 (ssRNA)
RNA: GGGAGGACGAUGCGGGUAUCGGUACGUGUUGGCUUGGGAAGGGGUCCGACGGUGCAGACGACUCGCCCGA
modifications: 2'-NH2 on all C and U

Molecular target: T2, human IgE (Homo sapiens, UniProt P01854-1 P01854-1:1-428)
Assay: filter; modified PBS, 1 mM Mg2+, 37 C
Settings: tags: Athens Research Technology; chain copies: 2; label: 5' 32P; hairpin
Protocol: Affinities of representative DNA ligands for human IgE were determined by nitrocellulose filter binding experiments and the K_Ds are listed in Table 7. […] Individual clones tested from this pool have affinities in the same range. The affinities were not expected to vary widely since the enriched DNA pool is very homogenous. Ligand D17.0 was picked for truncation experiments. […] However, the affinity could be restored to the level of the full-length ligand by the addition of a 4 basepair stem resulting in the 37 base truncate D17.4. It is possible that the stem in D17.1 is not stable enough to prevent the formation of an alternative secondary structure and that the additional base pair in D17.4 lock in the conformation necessary for IgE binding.

Point of comparison: B2, Kd 82 nM. Against it:
- B1 — 8.2-fold lower, 10 nM

Same assay, conditions: tags: Athens Research Technology; chain copies: 2; label: 5' 32P; stem-loop

For B3, the Kd was 9 nM.

Molecular target: T1, TAN IgE (chimeric: murine light chains …)
Assay: inhibition; inhibits IgE binding to FceRI on RBL SX-38 cells, ELISA
Settings: tags: biotinylated in the receptor assay; gift of Dr. Kinet (NIH); chain copies: 2; label: 5' 32P; hairpin
Protocol: A cell-based enzyme linked immunosorbent assay (ELISA) was used to measure the ability of the high-affinity DNA ligands to inhibit binding of IgE to the FcεRI receptor. Rat basophilic leukemia (RBL) cell-line SX-38 which expresses the α, β and γ subunits of the human FcεRI receptor was plated at a concentration of 10^5 cells per well in 96 well flat-bottom microtiter plates. After overnight growth, the cells were washed three times in modified PBS and incubated for one hour at 37° C. in 30 µl of 1.5 µg/ml biotinylated TAN IgE. The cells were washed 3 more times and incubated in 30 µl of 1/100 dilution of horseradish peroxidase (Molecular Probes, Eugene, Oreg.) conjugated to avidin for one hour at 37° C. After three final washes, 30 µl of 3,3',5,5'-tetramethylbenzidine (TMB) substrate, (Kirkegaard and Perry Laboratories, Gaithersburg, Md.) were added as a chromogenic substrate, and the plate was immediately transferred to the microtiter plate reader (Bio-Tek instruments, Winooski, Vt.) for analysis. The absorbance at 630 nm was measured every 60 seconds over a time span of 15 minutes. The rate of color development is an indication of the extent of IgE binding to the FcεRI receptor and was determined from the linear part of absorbance versus time graphs (data not shown). […] The inhibition activities of the RNA ligands were determined using the following formula: […]

For B1, the Ki was ~40 nM.

Same assay, conditions: tags: biotinylated in the receptor assay; gift of Dr. Kinet (NIH); chain copies: 2; label: 5' 32P; stem-loop

In the case of B3, the Ki is reported as ~40 nM.

Molecular target: T1, TAN IgE (chimeric: murine light chains …)
Assay: filter; modified PBS, 1 mM Mg2+, 37 C
Settings: tags: biotinylated in the receptor assay; gift of Dr. Kinet (NIH); chain copies: 2; label: 32P
Protocol: To test the specificity of the high-affinity interaction between the RNA ligands and human IgE, binding experiments were performed with different immunoglobulins as described in Example 1.
In order to localize which part of the IgE molecule the RNA ligands are contacting, binding experiments were carried out with a hybrid IgE molecule. The light chains and the variable region of this TAN IgE are murine derived, whereas the constant portion of the heavy chains are human.

Point of comparison: B4, Kd 36 nM. Against it:
- B5 — 2.1-fold higher, 77 nM

Molecular target: T2, human IgE
Assay: filter; modified PBS, 1 mM Mg2+, 37 C
Settings: tags: Athens Research Technology; chain copies: 2; label: 32P

Point of comparison: B8, Kd 141 nM. Against it:
- B6 — 2.5-fold lower, 56 nM
- B7 — 3.2-fold lower, 44 nM
- B4 — 7.4-fold lower, 19 nM
- B9 — 4.7-fold lower, 30 nM
- B10 — 1.6-fold higher, 225 nM
- B11 — within 1.5-fold, 186 nM
- B12 — 3.4-fold lower, 41 nM
- B13 — within 1.5-fold, 134 nM
- B14 — 1.6-fold lower, 87 nM
- B15 — 2.8-fold lower, 50 nM
- B16 — within 1.5-fold, 105 nM
- B17 — within 1.5-fold, 129 nM
- B5 — within 1.5-fold, 138 nM
- B18 — within 1.5-fold, 142 nM
- B19 — 3.6-fold lower, 39 nM
- B20 — 4.1-fold lower, 34 nM
- B21 — 2-fold lower, 69 nM
- B22 — within 1.5-fold, 145 nM

Molecular target: T1, TAN IgE (chimeric: murine light chains …)
Assay: inhibition; inhibits IgE binding to FceRI on RBL SX-38 cells, ELISA
Settings: tags: biotinylated in the receptor assay; gift of Dr. Kinet (NIH); chain copies: 2; label: 32P
Protocol: Rat basophilic leukemia (RBL) cell-line SX-38 which expresses the α, β and γ subunits of the human FcεRI IgE receptor was plated at a concentration of 10^5 cells per well in 96 well flat-bottom microtiter plates. After overnight growth, the cells were washed three times in modified PBS and incubated for one hour at 37° C. in 30 μl of 1.5 μg/ml biotinylated TAN IgE. The cells were washed 3 more times and incubated in 30 μl of 1/100 dilution of horseradish peroxidase conjugated to avidin (Molecular Probes, Eugene, Oreg.) for one hour at 37° C. After three final washes, 30 μl of 3,3',5,5'-tetramethylbenzidine (TMB) substrate (Kirkegaard and Perry Laboratories, Gaithersburg, Md.) were added as a chromogenic substrate and the plate was immediately transferred to the microtiter plate reader (Bio-Tek Instruments, Winooski, Vt.) for analysis. The absorbance at 630 nm was measured every 60 sec over a time span of 15 min. The rate of color development is an indication of the extent of IgE binding to the FcεRI receptor and was determined from the linear part of absorbance versus time graphs (data not shown). […] The inhibition activities of the RNA ligands were determined using the following formula: […]

Point of comparison: B5, Ki 44 nM. Against it:
- B4 — 2.1-fold lower, 21 nM
